Biological target: Fis (UniProt A0A0H2ZIA5 1-107)
Assay: EMSA
Conditions: protein: recombinant; chain copies: 2; label: none (ethidium bromide stain)

B1: exsA promoter -10 box probe (original Fis site, exsB-exsA intergenic) (dsDNA)
DNA 1: TAATCCTGATTATTATAAAATCGACTCCGTG
DNA 2: CACGGAGTCGATTTTATAATAATCAGGATTA
B1: binds.
